# Measurements published in patent JPH11127861A (dated 1999).
# Molecular target: HCV serine protease Cpro-2 (NS3 protein, p70) (C型肝炎ウイルス (株名 HCV-J))
# Assay: cell-based or functional assay
row,Binder,"IC50, HCVプロテアーゼ阻害活性 (組換え基質MBP-NS5A/5B-ADK) [µM]"
1,TDYVLIW [CDR-H1-7 (7 amino acid peptide: the 5 residues of H chain CDR1 with one residue left at each end)],165
2,GYSFTDYVLIWVKQS [CDR-H1 (15 amino acid peptide containing CDR1 of the mAb 8D4 H chain)],20.8
3,"NSNPYYGRTSYNLKFKG [CDR-H2 (17 amino acid peptide, CDR2 of the mAb 8D4 H chain)]",229
